# What was measured:
# Assay in all cases: holdup assay
# Parameters in all cases: key: below the threshold = too weak to quantify, mostly under pKd 3.1 to 4
# AHNAK1, Q09666 = molecular target: AHNAK1, Q09666
# APBA1_1, Q02410 = molecular target: T1, APBA1_1, Q02410
# T1 sequence (Q02410 651-752, limits assumed, looked up): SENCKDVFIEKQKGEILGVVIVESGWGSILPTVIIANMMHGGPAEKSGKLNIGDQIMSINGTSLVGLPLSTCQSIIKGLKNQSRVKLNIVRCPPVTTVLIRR
# ARHGEF12, Q9NZN5-2 = molecular target: ARHGEF12, Q9NZN5-2
# DFNB31_2, Q9P202 = molecular target: T2, DFNB31_2, Q9P202
# T2 sequence (Q9P202 274-371, limits assumed, looked up): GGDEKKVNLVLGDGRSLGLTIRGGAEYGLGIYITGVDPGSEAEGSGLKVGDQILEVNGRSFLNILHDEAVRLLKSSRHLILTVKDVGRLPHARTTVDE
# DLG1_2, Q12959 = molecular target: DLG1_2, Q12959
# DLG1_2, Q12959, sequence (Q12959 314-412): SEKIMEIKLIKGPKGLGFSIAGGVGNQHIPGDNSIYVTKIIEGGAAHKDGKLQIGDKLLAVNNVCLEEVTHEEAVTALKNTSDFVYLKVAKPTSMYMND
# DLG2_3, Q15700 = molecular target: DLG2_3, Q15700
# DLG4_2, P78352 = molecular target: DLG4_2, P78352
# DLG4_2, P78352, sequence (P78352 155-259): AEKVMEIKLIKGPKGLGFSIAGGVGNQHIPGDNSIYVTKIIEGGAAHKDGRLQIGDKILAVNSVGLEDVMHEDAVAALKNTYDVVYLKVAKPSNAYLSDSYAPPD
# DLG4_3, P78352 = molecular target: DLG4_3, P78352
# DLG4_3, P78352, sequence (P78352 306-403): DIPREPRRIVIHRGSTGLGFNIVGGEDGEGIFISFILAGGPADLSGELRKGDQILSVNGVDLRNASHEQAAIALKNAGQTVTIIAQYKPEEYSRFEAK
# DLG5_1, Q8TDM6 = molecular target: DLG5_1, Q8TDM6
# DLG5_1, Q8TDM6, sequence (Q8TDM6 617-713): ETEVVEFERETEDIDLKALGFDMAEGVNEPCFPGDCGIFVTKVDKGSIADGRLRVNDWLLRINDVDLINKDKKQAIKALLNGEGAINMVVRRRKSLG
# GOPC, Q9HD26 = molecular target: GOPC, Q9HD26
# GORASP2, Q9H8Y8 = molecular target: GORASP2, Q9H8Y8
# GRID2IP_2, A4D2P6 = molecular target: GRID2IP_2, A4D2P6
# GRID2IP_2, A4D2P6, sequence (A4D2P6 272-370): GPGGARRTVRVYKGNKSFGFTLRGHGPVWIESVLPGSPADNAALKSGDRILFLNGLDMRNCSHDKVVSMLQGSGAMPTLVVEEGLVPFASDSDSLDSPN
# GRIP2_3, Q9C0E4 = molecular target: GRIP2_3, Q9C0E4
# GRIP2_3, Q9C0E4, sequence (Q9C0E4 238-339): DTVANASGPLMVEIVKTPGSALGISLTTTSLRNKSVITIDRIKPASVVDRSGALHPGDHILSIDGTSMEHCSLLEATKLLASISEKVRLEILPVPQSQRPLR
# GRIP2_5, Q9C0E4 = molecular target: GRIP2_5, Q9C0E4
# GRIP2_5, Q9C0E4, sequence (Q9C0E4 544-642): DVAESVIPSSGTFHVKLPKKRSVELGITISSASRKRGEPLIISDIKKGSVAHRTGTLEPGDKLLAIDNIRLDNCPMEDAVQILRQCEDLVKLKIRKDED
# IL16_3, Q14005 = molecular target: IL16_3, Q14005
# IL16_3, Q14005, sequence (Q14005 1107-1207): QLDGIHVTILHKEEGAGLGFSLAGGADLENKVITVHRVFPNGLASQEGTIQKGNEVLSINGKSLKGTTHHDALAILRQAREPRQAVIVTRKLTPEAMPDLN
# Inadl_2, Q8NI35 = molecular target: Inadl_2, Q8NI35
# Inadl_2, Q8NI35, sequence (Q8NI35 238-335): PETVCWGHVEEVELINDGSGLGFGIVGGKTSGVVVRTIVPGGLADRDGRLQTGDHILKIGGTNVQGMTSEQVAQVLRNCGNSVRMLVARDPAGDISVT
# Inadl_3, Q8NI35 = molecular target: Inadl_3, Q8NI35
# Inadl_3, Q8NI35, sequence (Q8NI35 359-469): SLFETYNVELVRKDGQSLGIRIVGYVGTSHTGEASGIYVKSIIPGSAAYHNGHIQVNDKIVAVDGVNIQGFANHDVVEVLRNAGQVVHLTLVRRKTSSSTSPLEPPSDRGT
# MPDZ_5, O75970 = molecular target: T3, MPDZ_5, O75970
# T3 sequence (O75970 695-796, limits assumed, looked up): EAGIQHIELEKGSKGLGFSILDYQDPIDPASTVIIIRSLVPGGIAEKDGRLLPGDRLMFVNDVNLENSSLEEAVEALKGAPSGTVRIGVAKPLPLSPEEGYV
# NHERF3_1, Q5T2W1 = molecular target: T4, NHERF3_1, Q5T2W1
# T4 sequence (Q5T2W1 4-100, limits assumed, looked up): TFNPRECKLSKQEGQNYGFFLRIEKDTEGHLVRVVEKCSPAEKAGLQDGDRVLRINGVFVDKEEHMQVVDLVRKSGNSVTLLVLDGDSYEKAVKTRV
# NHERF4_1, Q86UT5-2 = molecular target: NHERF4_1, Q86UT5-2
# NHERF4_1, Q86UT5-2, sequence (Q86UT5 other isoform, or with tags, fused parts or gaps): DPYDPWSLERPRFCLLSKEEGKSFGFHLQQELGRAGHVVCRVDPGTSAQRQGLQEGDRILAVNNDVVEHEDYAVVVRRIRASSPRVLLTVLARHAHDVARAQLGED
# PARD3B_1, Q8TEW8 = molecular target: T5, PARD3B_1, Q8TEW8
# T5 sequence (Q8TEW8 196-299, limits assumed, looked up): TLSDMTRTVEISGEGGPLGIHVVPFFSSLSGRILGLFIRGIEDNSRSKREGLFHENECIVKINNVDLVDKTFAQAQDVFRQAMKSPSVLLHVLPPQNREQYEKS
# PICK1, Q9NRD5 = molecular target: PICK1, Q9NRD5
# PICK1, Q9NRD5, sequence (Q9NRD5 17-115): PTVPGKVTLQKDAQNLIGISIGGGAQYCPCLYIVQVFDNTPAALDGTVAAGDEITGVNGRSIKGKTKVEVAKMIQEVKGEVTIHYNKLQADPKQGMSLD
# SCRIB_2, Q14160 = molecular target: SCRIB_2, Q14160
# SCRIB_2, Q14160, sequence (Q14160 857-960): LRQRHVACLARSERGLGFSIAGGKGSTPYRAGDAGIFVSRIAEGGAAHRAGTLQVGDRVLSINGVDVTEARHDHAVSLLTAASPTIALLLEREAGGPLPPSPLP
# SHANK1, Q9Y566 = molecular target: T6, SHANK1, Q9Y566
# T6 sequence (Q9Y566 658-767, limits assumed, looked up): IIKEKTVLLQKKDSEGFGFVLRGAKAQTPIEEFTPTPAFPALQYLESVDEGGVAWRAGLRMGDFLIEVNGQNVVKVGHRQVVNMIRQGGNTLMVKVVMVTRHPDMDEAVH
# SNTA1, Q13424 = molecular target: T7, SNTA1, Q13424
# T7 sequence (Q13424 82-180, limits assumed, looked up): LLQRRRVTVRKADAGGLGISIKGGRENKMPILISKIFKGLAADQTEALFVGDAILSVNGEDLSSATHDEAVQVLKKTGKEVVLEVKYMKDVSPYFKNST
# SNTG2, Q9NY99 = molecular target: T8, SNTG2, Q9NY99
# T8 sequence (Q9NY99 68-166, limits assumed, looked up): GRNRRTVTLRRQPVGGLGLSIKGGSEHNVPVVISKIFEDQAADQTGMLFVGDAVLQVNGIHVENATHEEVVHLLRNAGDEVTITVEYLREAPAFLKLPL
# SNX27, Q96L92 = molecular target: SNX27, Q96L92
# TIAM2, Q8IVF5 = molecular target: T9, TIAM2, Q8IVF5
# T9 sequence (Q8IVF5 885-986, limits assumed, looked up): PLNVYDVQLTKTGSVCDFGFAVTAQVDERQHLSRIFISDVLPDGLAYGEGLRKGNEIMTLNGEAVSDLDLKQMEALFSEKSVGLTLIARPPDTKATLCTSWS
# TJP1_3, Q07157 = molecular target: TJP1_3, Q07157
# TJP1_3, Q07157, sequence (Q07157 416-512): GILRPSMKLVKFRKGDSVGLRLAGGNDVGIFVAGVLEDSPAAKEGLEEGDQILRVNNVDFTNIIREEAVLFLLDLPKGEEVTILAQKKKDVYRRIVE
# [1] = plain residues with an end cap or a label only (N-terminal biotin on a linker: ahx)
# [2] = plain residues with an end cap or a label only (N-terminal biotin on a linker: ado-ado, ttds)
# [3] = plain residues with an end cap or a label only (N-terminal biotin on a linker: ttds)
# ARHGEF12, Q9NZN5-2, sequence (Q9NZN5 other isoform, or with tags, fused parts or gaps): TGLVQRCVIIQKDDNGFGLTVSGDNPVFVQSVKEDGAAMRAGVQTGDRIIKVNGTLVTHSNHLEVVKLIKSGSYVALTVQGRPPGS
# AHNAK1, Q09666, sequence (Q09666 4-100): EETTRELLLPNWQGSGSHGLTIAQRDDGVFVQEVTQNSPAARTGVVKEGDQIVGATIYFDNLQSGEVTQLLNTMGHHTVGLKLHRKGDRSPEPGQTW
binder,measurement,setting,value
"SKKNELFSNL [NHERF1, O14745]",pKd,"AHNAK1, Q09666; [1]",below the threshold
same,pKd,"APBA1_1, Q02410; [1]",below the threshold
same,pKd,"ARHGEF12, Q9NZN5-2; [1]",3.98
same,pKd,"DFNB31_2, Q9P202; [1]",below the threshold
same,pKd,"DLG1_2, Q12959; [1]",below the threshold
same,pKd,"DLG2_3, Q15700; [1]",below the threshold
same,pKd,"DLG4_2, P78352; [1]",below the threshold
same,pKd,"DLG4_3, P78352; [1]",below the threshold
same,pKd,"DLG5_1, Q8TDM6; [1]",below the threshold
same,pKd,"GOPC, Q9HD26; [1]",below the threshold
same,pKd,"GORASP2, Q9H8Y8; [1]",below the threshold
same,pKd,"GRID2IP_2, A4D2P6; [1]",below the threshold
same,pKd,"GRIP2_3, Q9C0E4; [1]",below the threshold
same,pKd,"GRIP2_5, Q9C0E4; [1]",below the threshold
same,pKd,"IL16_3, Q14005; [1]",below the threshold
same,pKd,"Inadl_2, Q8NI35; [1]",below the threshold
same,pKd,"Inadl_3, Q8NI35; [1]",below the threshold
same,pKd,"MPDZ_5, O75970; [1]",below the threshold
same,pKd,"NHERF3_1, Q5T2W1; [1]",below the threshold
same,pKd,"NHERF4_1, Q86UT5-2; [1]",below the threshold
same,pKd,"PARD3B_1, Q8TEW8; [1]",below the threshold
same,pKd,"PICK1, Q9NRD5; [1]",below the threshold
same,pKd,"SCRIB_2, Q14160; [1]",below the threshold
same,pKd,"SHANK1, Q9Y566; [1]",below the threshold
same,pKd,"SNTA1, Q13424; [1]",below the threshold
same,pKd,"SNTG2, Q9NY99; [1]",below the threshold
same,pKd,"SNX27, Q96L92; [1]",below the threshold
same,pKd,"TIAM2, Q8IVF5; [1]",below the threshold
same,pKd,"TJP1_3, Q07157; [1]",below the threshold
"SNAKAVETDV [KCNA4, P22459]",pKd,"AHNAK1, Q09666; [2]",below the threshold
same,pKd,"APBA1_1, Q02410; [2]",below the threshold
same,pKd,"ARHGEF12, Q9NZN5-2; [2]",3.88
same,pKd,"DFNB31_2, Q9P202; [2]",below the threshold
same,pKd,"DLG1_2, Q12959; [2]",5.42
same,pKd,"DLG2_3, Q15700; [2]",below the threshold
same,pKd,"DLG4_2, P78352; [2]",5.19
same,pKd,"DLG4_3, P78352; [2]",below the threshold
same,pKd,"DLG5_1, Q8TDM6; [2]",below the threshold
same,pKd,"GOPC, Q9HD26; [2]",below the threshold
same,pKd,"GORASP2, Q9H8Y8; [2]",below the threshold
same,pKd,"GRID2IP_2, A4D2P6; [2]",below the threshold
same,pKd,"GRIP2_3, Q9C0E4; [2]",below the threshold
same,pKd,"GRIP2_5, Q9C0E4; [2]",below the threshold
same,pKd,"IL16_3, Q14005; [2]",below the threshold
same,pKd,"Inadl_2, Q8NI35; [2]",below the threshold
same,pKd,"Inadl_3, Q8NI35; [2]",3.51
same,pKd,"MPDZ_5, O75970; [2]",below the threshold
same,pKd,"NHERF3_1, Q5T2W1; [2]",below the threshold
same,pKd,"NHERF4_1, Q86UT5-2; [2]",below the threshold
same,pKd,"PARD3B_1, Q8TEW8; [2]",below the threshold
same,pKd,"PICK1, Q9NRD5; [2]",below the threshold
same,pKd,"SCRIB_2, Q14160; [2]",4.67
same,pKd,"SHANK1, Q9Y566; [2]",below the threshold
same,pKd,"SNTA1, Q13424; [2]",4.7
same,pKd,"SNTG2, Q9NY99; [2]",4.28
same,pKd,"SNX27, Q96L92; [2]",below the threshold
same,pKd,"TIAM2, Q8IVF5; [2]",below the threshold
same,pKd,"TJP1_3, Q07157; [2]",below the threshold
"PPRQRSETQV [HPV82-E6, Q9IR59]",pKd,"AHNAK1, Q09666; [3]",below the threshold
same,pKd,"APBA1_1, Q02410; [3]",below the threshold
same,pKd,"ARHGEF12, Q9NZN5-2; [3]",3.72
same,pKd,"DFNB31_2, Q9P202; [3]",below the threshold
same,pKd,"DLG1_2, Q12959; [3]",5.02
same,pKd,"DLG2_3, Q15700; [3]",4.9
same,pKd,"DLG4_2, P78352; [3]",4.9
same,pKd,"DLG4_3, P78352; [3]",4.43
same,pKd,"DLG5_1, Q8TDM6; [3]",below the threshold
same,pKd,"GOPC, Q9HD26; [3]",3.63
same,pKd,"GORASP2, Q9H8Y8; [3]",4.12
same,pKd,"GRID2IP_2, A4D2P6; [3]",below the threshold
same,pKd,"GRIP2_3, Q9C0E4; [3]",below the threshold
same,pKd,"GRIP2_5, Q9C0E4; [3]",below the threshold
same,pKd,"IL16_3, Q14005; [3]",below the threshold
same,pKd,"Inadl_2, Q8NI35; [3]",below the threshold
same,pKd,"Inadl_3, Q8NI35; [3]",below the threshold
same,pKd,"MPDZ_5, O75970; [3]",below the threshold
same,pKd,"NHERF3_1, Q5T2W1; [3]",4.03
same,pKd,"NHERF4_1, Q86UT5-2; [3]",below the threshold
same,pKd,"PARD3B_1, Q8TEW8; [3]",below the threshold
same,pKd,"PICK1, Q9NRD5; [3]",below the threshold
same,pKd,"SCRIB_2, Q14160; [3]",4.26
same,pKd,"SHANK1, Q9Y566; [3]",below the threshold
same,pKd,"SNTA1, Q13424; [3]",4.15
same,pKd,"SNTG2, Q9NY99; [3]",4
same,pKd,"SNX27, Q96L92; [3]",4.67
same,pKd,"TIAM2, Q8IVF5; [3]",below the threshold
same,pKd,"TJP1_3, Q07157; [3]",below the threshold
